According to patent US20260286002 (published 2026):
Like-named read-outs stand apart in the source and are kept apart here.

How the values were obtained:
human CD39-His [1] = biological target: T1, human CD39-His (human, UniProt P49961); test: BLI
T1 chain: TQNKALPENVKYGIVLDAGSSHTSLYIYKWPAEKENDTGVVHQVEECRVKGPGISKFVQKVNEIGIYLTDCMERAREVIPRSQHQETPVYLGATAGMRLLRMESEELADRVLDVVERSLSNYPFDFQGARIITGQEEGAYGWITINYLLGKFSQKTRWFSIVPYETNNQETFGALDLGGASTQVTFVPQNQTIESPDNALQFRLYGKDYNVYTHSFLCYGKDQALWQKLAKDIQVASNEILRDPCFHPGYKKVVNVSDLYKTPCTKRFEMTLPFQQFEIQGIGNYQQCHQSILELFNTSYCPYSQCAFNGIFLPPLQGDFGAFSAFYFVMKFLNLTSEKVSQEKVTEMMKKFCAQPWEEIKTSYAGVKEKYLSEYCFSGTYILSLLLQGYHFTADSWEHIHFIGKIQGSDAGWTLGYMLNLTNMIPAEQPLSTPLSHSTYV

human CD39-His [2] = biological target: T1, human CD39-His; test: BLI

Kd (human CD39-His [1]): 398 pM | Kd (human CD39-His [2]): 255 pM
B1: B391-F04 (designed binder)
chain: QLQLVESGGGLVQPGGSLRLSCAASGFTFSNLGMSWYRQAPGKAREWVGSISASGDYTTYQNSVKGRFTISRDNAKNTLYLQMNNLKPEDTGVYYCTRRVDSYPRGQGTQVTVSS
